Data reported in patent US20100191096A1, “PARAMAGNETIC BIOMOLECULE COMPLEXES AND USES THEREOF IN THE ASSESSMENT OF ORGAN FUNCTION” (priority 2007, published 2010).

Key:
[1] = test system: kidney (glomeruli, proximal tubular cells); settings: cited from earlier work
renal cortex = experiment: T1 weighted MRI of rat kidneys after i.v. contrast agent (contrast enhancement in renal cortex); settings: 20 minutes after 30 seconds in vivo i.v. infusion of 800 μl Ringer solution containing ~1 mg complex
Experimental: The MRI hardware used to obtain the date in the figures described below is a Pharmascan 7T small animal MR scanner (from Bruker Biospin MRI GmbH, Ettlingen, Germany). The software is Paravision version 4 (from Bruker Biospin MR GmbH). Dynamic imaging was performed using a Flash sequence, with 2 mm slice thickness, 256×256 matrix, field of view (FOV) 6 cm, TR15.576 ms, TE3.7 ms, 250 evolution cycles, scan time 12 mins 27 sec. T1 weighted imaging was performed using a Flash T1 sequence, with 2 mm slice thickness, 256×256 matrix, FOV 6 cm, TR15.57 ms, TE3.7 ms, 10 averages, scan time 30 secs. T2 weighted imaging was performed using a Turbo RARE T2 sequence, with 2 mm slice thickness, 256×256 matrix, FOV 6 cm, TR4200 ms, TE36 ms, 3 averages, scan time 6 mins 47 secs.

## aprotinin
[1]; labelled aprotinin, i.v. injection
  time at which breakdown products can be detected in plasma after i.v. injection: 20 min
[1]; rat, in vivo
  renal handling of native aprotinin (filtration, tubular uptake): freely filtered in the glomeruli and quantitatively taken up into proximal tubular cells

## Gd-DTPA-Lysozyme: Complex of chicken egg white lysozyme linked via DTPA chelator to Gadolinium, Example 2 standard protocol
Renal cortex
  contrast enhancement, T1 weighted MRI of coronal sections of rat kidneys (ex vivo): selectively enhanced the contrast in the renal cortex
